Measured values from patent US20200181239A1.
Blank lines part the entries; values can stand above or below the molecule they belong to.

Tests used:
canine PD-L1 (canine) = test: competition ELISA: biotinylated canine PD-L1 pre-incubated with the inhibitor, then bound to coated canine PD-1, streptavidin-HRP
papain = papain (UniProt P00784)
[1] = biological target: T1, human Stefin A (wild type human Cystatin A)
T1 chain: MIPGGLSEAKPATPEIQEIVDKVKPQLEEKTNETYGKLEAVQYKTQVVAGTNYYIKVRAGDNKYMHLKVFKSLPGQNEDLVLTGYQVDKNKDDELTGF

IC50 (read off the curve) (canine PD-L1 (canine)): 20 nM
Molecule: canine PD-1 (receptor)

IC50 (read off the curve) (papain): 1 nM
Molecule: human Stefin A (wild type human Cystatin A) (from UniProt P01040 1-98)

B1: papain (protein)
chain: IPEYVDWRQKGAVTPVKNQGSCGSCWAFSAVVTIEGIIKIRTGNLNEYSEQELLDCDRRSYGCNGGYPWSALQLVAQYGIHYRNTYPYEGVQRYCRSREKGPYAAKTDGVRQVQPYNEGALLYSIANQPVSVVLEAAGKDFQLYRGGIFVGPCGNKVDHAVAAVGYGPNYILIKNSWGTGWGENGYIRIKRGTGNSYGVCGLYTSSFYPVKN
papain activity assay: fluorescence (excitation 380 nm, emission 460 nm) from the substrate N-Carbobenzyloxy-Phe-Arg-7-amido-4-methylcoumarin [1]: hSteA is a potent inhibitor of papain
